Assay results published in patent publication US20090111742A1, “Use of fgf-21 and thiazolidinedione for treating type 2 diabetes” (priority 2004, published 2009).

What was measured:
male ob/ob mice = experiment: Ob/ob mouse model, blood glucose levels; type: in vivo; conditions: 1 hour post dose
Experimental: The Ob/ob mouse model is an animal model for hyperglycemia, insulin resistance and obesity. Male ob/ob mice are used to monitor plasma glucose levels and triglyceride levels after treatment with FGF-21, rosiglitazone, and FGF-21 in combination with rosiglitazone. The test groups of male ob/ob, mice (7 weeks old) are: FGF-21, 5 μg/day; rosiglitazone, 30 mg/kg/day; FGF-21, 3 ug/day, +rosiglitazone, 10 mg/kg/day; FGF-21, 5 ug/day, +rosiglitazone, 30 mg/kg/day; FGF-21, 5 ug/day, +rosiglitazone 10 mg/kg/day; s.c. vehicle control (0.9% NaCl, 0.1 ml/mouse); and, p.o. vehicle control (CMC/SLS/Povidone, 0.2 ml/mouse). FGF-21 is administered s.c. in 0.1 ml, and rosiglitazone is administered p.o. in 0.2 ml.
The animals are dosed daily for 14 days. Blood glucose levels are measured daily, 1 hour post dosing, using a standard protocol.

male db/db mice [1] = experiment: Db/db mouse model, blood glucose levels; type: in vivo; conditions: 1 hour post dose
Excerpt: (§1) The genetically diabetic C57BL/KsJ (db/db) mouse provides an animal model of type 2 diabetes, characterized by obesity, hyperglycemia and insulin resistance with hyperinsulinemia. (Sharma et al., Am J Physiol Renal Physiol. 284(6):F1138-b 44, (2003)).
(§2) In the present study, male db/db mice, 9 weeks of age are used. The animals are randomized by body weight and blood glucose levels into groups of six mice per group. Group 1: vehicle 1: CMC/SLS/Povidone, p.o. […] The animals are dose for 14 days.
Blood glucose is measured daily, 1 hour post dosing.

male db/db mice [2] = experiment: Db/db mouse model, plasma triglycerides; type: in vivo
Excerpt: as §1, §2
Plasma triglycerides are measured on days 7 and 14, 1 hour post dosing.

[3] = tested on: differentiated 3T3-L1 cells; experiment: Glucose uptake in mouse 3T3-L1 adipocytes (2-deoxy-D-[14C]glucose accumulation); type: cell-based; conditions: 72 hr. treatment
Experimental: 3T3-Li cells are obtained from the American Type Culture Collection (ATCC, Rockville, Md.). Cells are cultured in growth medium (GM) containing 10% calf serum in Dulbecco's modified Eagle's medium. For standard adipocyte differentiation, two days after cells reach confluency (referred as day 0), the cells are exposed to differentiation medium (DM) containing 10% fetal bovine serum, 5 μg/ml of insulin, 1 μM dexamethasone, and […] isobutylmethylxanthine, for 48 h and then are exposed to medium containing 10% fetal bovine serum, 5 μg/ml insulin for an additional 48 h. Cells are then maintained in post differentiation medium containing 10% fetal bovine serum.
Glucose Transport Assay—FGF-21 is added to the differentiated 3T3-L1 cells in 96 well plates at 0, 0.016, 0.08, 0.4, 2, 10, or 50.0 nM, and rosiglitazone is added to a final concentration of 1 μM, Table 1. For comparison, rosiglitazone alone is added at the concentrations indicated in Table 2 or in combination with FGF-21 at 1 μg/ml. The plates are incubated at 37° C. for 72 hours.
Hexose uptake, as assayed by the accumulation of 2-deoxy-D-[^14C]glucose, is measured as follows: 24 hours prior to the assay, the wells are rinsed twice with PBS and DMEM (high glucose, 1% antibiotic/antimycotic solution, 2 mM glutamine), 0.1% BSA plus FGF-21 is added. The plates are incubated at 37° C. for 72 hours. The cells are then washed twice with KRP buffer (136 mM NaCl, 4.7 mM KCl, 10 mM NaPO4, 0.9 mM CaCl2, 0.9 MM MgSO4, 0.1% BSA, pH 7.4), and then KRP buffer containing 1% BSA, 2-deoxy-D-glucose, 100 μM, 0.1 μCi/well 2-deoxy-D-[^14C]glucose is added and the plates are incubated at 37° C. for one hour. Cytochalasin B is added to stop further glucose uptake. Uptake is measured on a Microbeta plate reader.

CN(CCOc1ccc(CC2SC(=O)NC2=O)cc1)c1ccccn1 (stereo not drawn) [Rosi., rosiglitazone, reference compound]
Blood Glucose Levels in ob/ob mice (male ob/ob mice; Rosi. 30 mg/kg/day p.o., day 0): 225 mg/dL
Blood Glucose Levels in ob/ob mice (male ob/ob mice; Rosi. 30 mg/kg/day p.o., day 2): 125 mg/dL
Blood Glucose Levels in ob/ob mice (male ob/ob mice; Rosi. 30 mg/kg/day p.o., day 4): 150 mg/dL
Blood Glucose Levels in ob/ob mice (male ob/ob mice; Rosi. 30 mg/kg/day p.o., day 6): 135 mg/dL
Blood Glucose Levels in ob/ob mice (male ob/ob mice; Rosi. 30 mg/kg/day p.o., day 8): 115 mg/dL
Blood Glucose Levels in ob/ob mice (male ob/ob mice; Rosi. 30 mg/kg/day p.o., day 10): 125 mg/dL
Blood Glucose Levels in ob/ob mice (male ob/ob mice; Rosi. 30 mg/kg/day p.o., day 12): 120 mg/dL
Blood Glucose Levels in ob/ob mice (male ob/ob mice; Rosi. 30 mg/kg/day p.o., day 14): 115 mg/dL
Blood Glucose Levels in db/db mice (male db/db mice [1]; Rosi. 10 mg/kg/day p.o., day 0): 265 mg/dL
Blood Glucose Levels in db/db mice (male db/db mice [1]; Rosi. 10 mg/kg/day p.o., day 2): 370 mg/dL
Blood Glucose Levels in db/db mice (male db/db mice [1]; Rosi. 10 mg/kg/day p.o., day 4): 350 mg/dL
Blood Glucose Levels in db/db mice (male db/db mice [1]; Rosi. 10 mg/kg/day p.o., day 6): 340 mg/dL
Blood Glucose Levels in db/db mice (male db/db mice [1]; Rosi. 10 mg/kg/day p.o., day 8): 265 mg/dL
Blood Glucose Levels in db/db mice (male db/db mice [1]; Rosi. 10 mg/kg/day p.o., day 10): 315 mg/dL
Blood Glucose Levels in db/db mice (male db/db mice [1]; Rosi. 10 mg/kg/day p.o., day 12): 360 mg/dL
Blood Glucose Levels in db/db mice (male db/db mice [1]; Rosi. 10 mg/kg/day p.o., day 14): 350 mg/dL
Plasma Triglycerides (male db/db mice [2]; Rosi. 10 mg/kg/day, Day 7, 1 hour post dose): 135 mg/dL
Plasma Triglycerides (male db/db mice [2]; Rosi. 10 mg/kg/day, Day 14, 1 hour post dose): 85 mg/dL

B1: FGF-21: mature human 181 amino acid FGF-21 polypeptide (SEQ ID NO:1), recombinantly expressed (protein)
chain: HPIPDSSPLLQFGGQVRQRYLYTDDAQQTEAHLEIREDGTVGGAADQSPESLLQLKALKPGVIQILGVKTSRFLCQRPDGALYGSLHFDPEACSFRELLLEDGYNVYQSEAHGLPLHLPGNKSPHRDPAPRGPARFLPLPGLPPALPEPPGILAPQPPDVGSSDPLSMVGPSQGRSPSYAS
modifications: homo sapiens
Blood Glucose Levels in ob/ob mice (male ob/ob mice; FGF-21 5 μg/day s.c., day 0): 225 mg/dL
Blood Glucose Levels in ob/ob mice (male ob/ob mice; FGF-21 5 μg/day s.c., day 2): 175 mg/dL
Blood Glucose Levels in ob/ob mice (male ob/ob mice; FGF-21 5 μg/day s.c., day 4): 150 mg/dL
Blood Glucose Levels in ob/ob mice (male ob/ob mice; FGF-21 5 μg/day s.c., day 6): 140 mg/dL
Blood Glucose Levels in ob/ob mice (male ob/ob mice; FGF-21 5 μg/day s.c., day 8): 140 mg/dL
Blood Glucose Levels in ob/ob mice (male ob/ob mice; FGF-21 5 μg/day s.c., day 10): 160 mg/dL
Blood Glucose Levels in ob/ob mice (male ob/ob mice; FGF-21 5 μg/day s.c., day 12): 180 mg/dL
Blood Glucose Levels in ob/ob mice (male ob/ob mice; FGF-21 5 μg/day s.c., day 14): 225 mg/dL
Blood Glucose Levels in db/db mice (male db/db mice [1]; FGF-21 3 μg/day s.c., day 0): 265 mg/dL
Blood Glucose Levels in db/db mice (male db/db mice [1]; FGF-21 3 μg/day s.c., day 2): 270 mg/dL
Blood Glucose Levels in db/db mice (male db/db mice [1]; FGF-21 3 μg/day s.c., day 4): 280 mg/dL
Blood Glucose Levels in db/db mice (male db/db mice [1]; FGF-21 3 μg/day s.c., day 6): 300 mg/dL
Blood Glucose Levels in db/db mice (male db/db mice [1]; FGF-21 3 μg/day s.c., day 8): 290 mg/dL
Blood Glucose Levels in db/db mice (male db/db mice [1]; FGF-21 3 μg/day s.c., day 10): 325 mg/dL
Blood Glucose Levels in db/db mice (male db/db mice [1]; FGF-21 3 μg/day s.c., day 12): 345 mg/dL
Blood Glucose Levels in db/db mice (male db/db mice [1]; FGF-21 3 μg/day s.c., day 14): 345 mg/dL
Plasma Triglycerides (male db/db mice [2]; FGF-21 3 ug/day, Day 7, 1 hour post dose): 165 mg/dL
Plasma Triglycerides (male db/db mice [2]; FGF-21 3 ug/day, Day 14, 1 hour post dose): 120 mg/dL
14C-Deoxyglucose (CPM) ([3]; FGF-21 alone 0.4 nM): 1300 CPM
14C-Deoxyglucose (CPM) ([3]; FGF-21 alone 2.0 nM): 2500 CPM
14C-Deoxyglucose (CPM) ([3]; FGF-21 alone 10.0 nM): 3100 CPM
14C-Deoxyglucose (CPM) ([3]; FGF-21 alone 50.0 nM): 3500 CPM
14C-Deoxyglucose (CPM) ([3]; FGF-21 alone .016 nM): 900 CPM
14C-Deoxyglucose (CPM) ([3]; FGF-21 alone .08 nM): 1000 CPM
